In one series the target is PSA (PSA standard) (UniProt P07288 25-261). Description: electrochemical aptasensor (DPV); 1 ng/mL; current below blank, attributed to physical adsorption; PBS as solvent, 100 uL sample; DPV -0.6 to 0 V, peak about -0.4 V; BSA-blocked electrode; pH, salt and assay temperature not stated. To be noted: protein: commercial.
Series [1] concerns the target B-type brain natriuretic peptide (BNP) (UniProt P16860 103-134). The series is described as above. The conditions noted are these: protein: commercial.
The target of the next series is T1, C-reactive protein (CRP) (UniProt P02741 19-224).
T1 sequence: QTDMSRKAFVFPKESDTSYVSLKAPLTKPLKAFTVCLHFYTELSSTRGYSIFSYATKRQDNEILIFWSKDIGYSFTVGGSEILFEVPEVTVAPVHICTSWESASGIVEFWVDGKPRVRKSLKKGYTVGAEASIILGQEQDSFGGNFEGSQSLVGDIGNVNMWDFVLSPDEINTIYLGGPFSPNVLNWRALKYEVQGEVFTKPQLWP
In words: electrochemical aptasensor (DPV); 1 ng/mL CRP; aptamer immobilized on SPE/AuNPs/GO-COOH, BSA-blocked; linear range 0.001-100 ng/mL, LOD 2.941e-4 ng/mL; PBS as solvent, 100 uL sample; DPV -0.6 to 0 V, peak about -0.4 V; BSA-blocked electrode; pH, salt and assay temperature not stated. The conditions noted are these: protein: commercial; chain copies: 5.

PSA (PSA standard), sequence (P07288 25-261): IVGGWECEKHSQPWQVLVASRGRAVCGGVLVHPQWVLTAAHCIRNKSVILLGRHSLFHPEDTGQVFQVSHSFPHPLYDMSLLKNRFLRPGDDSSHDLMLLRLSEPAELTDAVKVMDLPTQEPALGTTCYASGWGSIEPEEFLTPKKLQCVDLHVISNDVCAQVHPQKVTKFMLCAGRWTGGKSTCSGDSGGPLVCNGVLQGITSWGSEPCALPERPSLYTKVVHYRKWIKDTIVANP
B-type brain natriuretic peptide (BNP), sequence (P16860 103-134): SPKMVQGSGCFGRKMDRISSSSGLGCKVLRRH

As for GCCTGTAAGGTGGTCGGTGTGGCGAGTGTGTTAGGAGAGATTGC (ssDNA, 5'-NH2) [CRP aptamer], the binding result with PSA (PSA standard) is “no binding”; in series [1], “no binding”; in the series with C-reactive protein (CRP), “binds”.

Source of the values: article PMC9775280, “A Simple Label-Free Aptamer-Based Electrochemical Biosensor for the Sensitive Detection of C-Reactive Proteins”.
